Assay in all cases: cell-based or functional assay
Assay [1] addresses HIV-1 Env of isolate APV_6 (subtype B pseudovirus) (HIV-1).
In assay [2] the target is HIV-1 MGRM-A-010 Env (pseudovirus, clade A) (HIV-1).
The target in assay [3] is HIV-1 Env of isolate MGRM-C-027 (HIV-1).
The target of assay [4] is HIV-1 Env of isolate MGRM-D-003 (pseudovirus) (HIV-1).
The target in assay [5] is HIV-1 Env of isolate TRO.11 (subtype B pseudovirus) (HIV-1).
In assay [6] the target is HIV-1 Env of isolate MGRM-D-026 (pseudovirus) (HIV-1).
Assay [7] deals with HIV-1 Env of isolate MGRM-Chronic-B-004 (subtype B pseudovirus) (HIV-1).
For assay [8], the target named is HIV-1 Env of isolate SC422661.8 (subtype B pseudovirus) (HIV-1).
Assay [9] concerns the target HIV-1 Env of isolate CMU02 (clade AE), on pseudovirus (HIV-1).
Assay [10] concerns the target HIV-1 APV17 Env (pseudovirus) (HIV-1).
Assay [11] has as its target HIV-1 Env of isolate MG RM-D-016 (HIV-1).
The target of assay [12] is HIV-1 Env of isolate 93UG077 (HIV-1).
In assay [13] the target is HIV-1 envelope glycoprotein (Env) of isolate MGRM-C-010 (HIV-1).
Assay [14] deals with HIV-1 Env of isolate MGRM-A-004 (HIV-1).
The target of assay [15] is HIV-1 envelope glycoprotein (Env) of isolate MGRM-C-025 (HIV-1).
In assay [16] the target is HIV-1 Env of isolate MGRM-A-010 (subtype A) (HIV-1).
Assay [17] addresses HIV-1 Env of isolate MGRM-AG-005 (subtype AG) (HIV-1).
In assay [18] the target is HIV-1 Env of isolate MGRM-Chronic-B-018 (subtype B) (HIV-1).
In assay [19] the target is HIV-1 Env of isolate MGRM-AG-006 (subtype AG) (HIV-1).
The target of assay [20] is HIV-1 envelope glycoprotein (Env) of isolate MGRM-C-008 (HIV-1).
In assay [21] the target is HIV-1 Env of isolate MGRM-Chronic-B-010 (subtype B) (HIV-1).
In assay [22] the target is HIV-1 Env of isolate MGRM-A-014 (subtype A) (HIV-1).
For assay [23], the target named is HIV-1 Env of isolate MGRM-A-009 (subtype A) (HIV-1).
Assay [24] has as its target HIV-1 Env of isolate PVO.4 (subtype B) (HIV-1).
Assay [25] has as its target HIV-1 Env of isolate MG RM-D-014 (HIV-1).

Chain of 5329_C19 (PGT-136) (antibody) (VH): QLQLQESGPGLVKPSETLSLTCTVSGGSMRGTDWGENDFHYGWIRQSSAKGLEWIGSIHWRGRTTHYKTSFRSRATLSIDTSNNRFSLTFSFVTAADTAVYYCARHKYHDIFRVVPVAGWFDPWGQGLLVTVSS
Chain of 5329_C19 (PGT-136) (antibody) (VL): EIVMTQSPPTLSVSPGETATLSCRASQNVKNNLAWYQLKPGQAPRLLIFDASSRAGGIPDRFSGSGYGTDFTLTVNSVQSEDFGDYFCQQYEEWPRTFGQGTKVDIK

Regarding 4858_P08 (PGT-123) (antibody), the IC50 (µg/mL), pseudovirus neutralization is 0.023 µg/mL in assay [1], 0.008 µg/mL in assay [5], 0.008 µg/mL in assay [7] and 0.039 µg/mL in assay [8]. Moreover, the IC50 neutralization in assay [2] worked out at 0.492 µg/mL. In assay [3], the neutralization IC50 turned out to be 0.02 µg/mL. The values for the IC50, pseudovirus neutralization in assay [4], in assay [6] and in assay [9] were 3.74 µg/mL, over 50 µg/mL and over 10 µg/mL, respectively. The same substance came in with a neutralization IC50 (pseudovirus) in assay [10] of 0.18 µg/mL.

For the substance 5145_B14 (PGT-127) (antibody), the IC50 (µg/mL), pseudovirus neutralization in assay [1] was found to be 0.04 µg/mL; in assay [5] it was 0.079 µg/mL; in [7] it was 0.018 µg/mL; in assay [8] it was 36.7 µg/mL. The substance also came in with a neutralization IC50 in [3] of over 50 µg/mL. Besides, the IC50, pseudovirus neutralization in [4] was 0.029 µg/mL; in assay [6], over 50 µg/mL.

As for 5123_A06 (PGT-125) (antibody), the IC50 (µg/mL), pseudovirus neutralization in assay [1] was 0.021 µg/mL; in assay [5], 0.111 µg/mL; in assay [7], 0.007 µg/mL; in [8], 30.1 µg/mL. In addition, in [2], the IC50 neutralization is 0.0055 µg/mL. Moreover, the neutralization IC50 in [3] was over 50 µg/mL. Also, the IC50, pseudovirus neutralization in [4] is 0.065 µg/mL; in assay [6], over 50 µg/mL; in [9], over 10 µg/mL. The substance also yielded a neutralization IC50 (pseudovirus) in [10] of 7.31 µg/mL.

Take 5141_B17 (PGT-126) (antibody): the IC50 (µg/mL), pseudovirus neutralization in assay [1] worked out at 0.007 µg/mL; in [5] it was 0.041 µg/mL; in assay [7] it was 0.01 µg/mL; in [8] it was 0.119 µg/mL. Besides, the IC50 neutralization in [2] came to 0.0033 µg/mL. Further, the neutralization IC50 in assay [3] was 15.6 µg/mL. Moreover, the IC50, pseudovirus neutralization in assay [4] is 0.021 µg/mL; in [6], over 50 µg/mL; in assay [9] it was over 10 µg/mL. This substance also came in with a neutralization IC50 (pseudovirus) in [10] of 0.501 µg/mL.

The term IC50 denotes the midpoint of a concentration-inhibition curve. On to 5343_B08 (PGT-135) (antibody), for which the IC50 (µg/mL), pseudovirus neutralization in assay [11] was over 50 µg/mL; in [13], over 50 µg/mL; in assay [15] it was over 50 µg/mL; in assay [16], over 50 µg/mL; in assay [17], over 50 µg/mL; in [19], 17.9 µg/mL. Moreover, the IC50 (µg/mL), pseudovirus neutralization in assay [20] is over 50 µg/mL; in assay [22], 0.636 µg/mL; in [23] it was over 50 µg/mL; in assay [25], 2.21 µg/mL. For the same substance, the IC50 neutralization in assay [2] was over 10 µg/mL; in [18], over 50 µg/mL; in [21] it was over 50 µg/mL; in assay [24], over 50 µg/mL. Besides, the IC50 in assay [12] and in [14] was over 50 µg/mL throughout. For the same substance, the IC50, pseudovirus neutralization in [9] was over 10 µg/mL. In addition, the IC50 (neutralizing activity, pseudovirus) in assay [10] was over 10 µg/mL.

On to 4838_L06 (PGT-121) (antibody), for which the IC50 (µg/mL), pseudovirus neutralization came to 0.018 µg/mL in [1], 0.008 µg/mL in assay [5], 0.009 µg/mL in assay [7] and 0.098 µg/mL in [8]. Also, the neutralization IC50 in [3] stood at 0.011 µg/mL. In addition, the IC50, pseudovirus neutralization is 10.7 µg/mL in assay [4], over 50 µg/mL in assay [6] and over 10 µg/mL in [9].

Consider 5147_N06 (PGT-130) (antibody), for which the IC50 (µg/mL), pseudovirus neutralization in assay [11] is over 50 µg/mL; in [13] it was over 50 µg/mL; in assay [15], over 50 µg/mL; in [16], 0.005 µg/mL; in assay [17] it was 0.54 µg/mL; in assay [19] it was 0.009 µg/mL. In addition, the IC50 (µg/mL), pseudovirus neutralization in assay [20] turned out to be 7.28 µg/mL; in assay [22], 0.161 µg/mL; in assay [23], 0.308 µg/mL; in assay [25] it was 0.061 µg/mL. Moreover, the IC50 neutralization in [2] is 0.0054 µg/mL; in assay [18], 31.9 µg/mL; in assay [21], 0.006 µg/mL; in assay [24], 5.17 µg/mL. Besides, the IC50 in [12] was 21.4 µg/mL; in assay [14], over 50 µg/mL. In addition, in assay [9], the IC50, pseudovirus neutralization is over 10 µg/mL. The Neutralization by PGT-130, IC50 in assay [10] is over 10 µg/mL. For the same substance, in assay [10], the Neutralization by PGT-130, IC80 was over 10 µg/mL. Also, the Neutralization by PGT-130, IC90 in assay [10] is over 10 µg/mL. The Neutralization by PGT-130, IC95 in assay [10] was over 10 µg/mL. The neutralization IC50 (pseudovirus) in assay [10] is over 10 µg/mL.

As for 5114_A19 (PGT-128) (antibody), the IC50 (µg/mL), pseudovirus neutralization in assay [11] is over 50 µg/mL; in [13], over 50 µg/mL; in [15], 10.5 µg/mL; in assay [16], 0.005 µg/mL; in assay [17] it was 0.037 µg/mL; in assay [19], 0.009 µg/mL. The IC50 (µg/mL), pseudovirus neutralization in [20] is 0.373 µg/mL; in assay [22] it was 0.007 µg/mL; in [23], 0.005 µg/mL; in assay [25], 0.013 µg/mL. Besides, the values for the IC50 in assay [12] and in [14] were 0.014 µg/mL and over 50 µg/mL, respectively. For the same substance, the figures for the IC50 neutralization in assay [18], in [21] and in assay [24] were 0.02 µg/mL, 0.004 µg/mL and 0.005 µg/mL, respectively.

In the case of 4877_D15 (PGT-122) (antibody), the IC50 (µg/mL), pseudovirus neutralization in [1] worked out at 0.019 µg/mL; in assay [5], 0.011 µg/mL; in assay [7], 0.008 µg/mL; in assay [8], 0.103 µg/mL. The substance further showed an IC50 neutralization in assay [2] of 1.68 µg/mL. This substance returned a neutralization IC50 in assay [3] of 0.039 µg/mL. Besides, the IC50, pseudovirus neutralization in assay [4] was over 50 µg/mL; in assay [6], over 50 µg/mL; in assay [9], over 10 µg/mL. The substance further yielded a neutralization IC50 (pseudovirus) in assay [10] of 0.522 µg/mL.

Regarding 5329_C19 (PGT-136) (antibody), the IC50 (µg/mL), pseudovirus neutralization was over 50 µg/mL in [11]; over 50 µg/mL in assay [13]; over 50 µg/mL in assay [15]; over 50 µg/mL in [16]; over 50 µg/mL in [17]; 29.1 µg/mL in [19]. For the same substance, the IC50 (µg/mL), pseudovirus neutralization in assay [20], in assay [22], in assay [23] and in assay [25] was over 50 µg/mL each time. The IC50 neutralization in assay [2] is over 10 µg/mL; in [18], over 50 µg/mL; in assay [21], over 50 µg/mL; in [24], over 50 µg/mL. Besides, the IC50 in assay [12] and in [14] was over 50 µg/mL each time. In addition, in assay [9], the IC50, pseudovirus neutralization is over 10 µg/mL. The substance also gave an IC50 (neutralizing activity, pseudovirus) in assay [10] of over 10 µg/mL.

Source of the values: US20250320281A1.
